From patent publication US11407840B2, “Antibodies to M(H)DM2/4 and their use in diagnosing and treating cancer” (NomoCan Pharmaceuticals LLC, priority 2017, dated 2022)

Columns and labels:
[1] = target: NMC-P1 peptide (SEQ ID NO:1) (Homo sapiens, UniProt Q00987); test: Peptide antigen binding competition ELISA; conditions: mAb pre-incubated with peptide 1 hour at room temperature; FIG. 1D
Experimental: Peptide-ELISA Methodology: 5 μg/ml of NMC-P1, NMC-P2 or NMC-P3 peptide antigen was dried onto a 96-well ELISA plate overnight. Plates were then blocked with 5% BSA in 1× phosphate-buffered saline (PBS) (100 ? /well) for 2 hours at room temperature. Microplate wells were then washed 5 times with 300 ? of ice cold 1× PBS. Appropriate dilutions of monoclonal antibodies NMC-103, NMC-204 or NMC-303 in 1% bovine serum albumin (BSA) in PBS solution were then incubated with their corresponding peptides (NMC-P1, NMC-P2 or NMC-P3, respectively) at room temperature. After 2 hours, wells were washed 5 times with 300 ? ? ice-cold PBS/well and 100 ? secondary antibody (HRP-labeled Goat anti-Mouse F(ab′)2 H&L cross-adsorbed secondary antibody (HRP-GaM F(ab′)2), ThermoFisher, Cat. No. A24524) diluted 1:2500 to 1:5000 in PBS-1% BSA solution were added and the incubation continued at room temperature. After 1 hour, the wells were washed again 5 times with 200 ? of ice-cold PBS and 50 μiL of the TMB Substrate Solution (1-StepTM Ultra TMB-ELISA, ThermoFisher, Cat. No. 34028) were added to each well and color was allowed to develop for 30 minutes at room temperature. The reaction was stopped by addition of 50 μ ? ? of stop solution (ThermoFisher, Cat. No. SSO4) to each well and absorbance of each well was read immediately for optical density (OD) at 450 nm. […]

[2] = test system: mouse pancreatic cancer Panc-2 cells (subcutaneous tumors); test: Panc-2 syngeneic mouse model of pancreatic cancer; format: in vivo, mouse (C57BL/6)
Experimental: Methodology used (Syngeneic Mouse Models of lung, colon and pancreatic cancer): To investigate the anti-tumor effects of HDM2-specific antibodies on lung, colon and pancreatic tumors in vivo, three well-known syngeneic mouse models of lung, colon and pancreatic cancer were used (Sharma et al, 1999, J. Immunol. 163 (9):5020-5028; McIntyre, 2015, Bioassays 37(8):909-920; Li, et al, 2015, Sci. Rep. 5:7856). Subcutaneous tumors were prepared by implanting either mouse Lewis Lung cancer LL/2 cells (2.5×10^5 cells/mouse), mouse colon cancer MC-38 cells (5×10^5 cells/mouse) or mouse pancreatic cancer Panc-2 cells (2×10^6 cells/mouse) in the right flanks of 8-week-old female C57BL/6 mice (n=6-7). The mice were returned to their respective cages after tumor implantation. From day 7 after tumor implantation, the tumor volumes were measured 2 times/week with a digital caliper. In the case of MC-38 and Panc-2 study, treatment started when the tumors reached an average of 70-80 mm^3. In the case of LL/2 study, tumor cell inoculation and treatment were initiated simultaneously. Mice were micro-chipped and registered following tumor implantation. […] All tumors were injected subcutaneously and all treatments were performed by intraperitoneal injection. Any mouse displaying prolonged adverse clinical signs, or with body weight loss exceeding 15% relative to body weight at day 0, was euthanized.
The efficacy of FIDM2-specific antibody treatment and standard of care chemotherapy was further compared. […] As shown in the tumor volume graph of FIG. 19, when tumors in mice reached approximately 70 mm^3, mice were divided into 4 groups (n=6) that received: A) isotype control mouse IgG1 (2 mg/kg); B) low dose Gemcitabine (25 mg/kg) and nab-Paclitaxel (5 mg/kg); C) NMC-103 (2 mg/kg); or D) a combination of low dose Gemcitabine (25 mg/kg), nab-Paclitaxel (5 mg/kg) and NMC-103 (2 mg/kg). All drugs were injected intraperitoneally 2 times a week for 3 weeks. After receiving the 6th dose on day 19, treatments were stopped for 2 weeks.
The anti-tumor efficacy of NMC-103 and of its combination with pancreatic cancer standard of care treatment Gemcitabine (G) and nab-Paclitaxel (nP) was further evaluated in vivo utilizing the Panc-2 syngeneic mouse model of pancreatic cancer discussed above.
All drugs were injected intraperitoneally 2 times a week for 4 weeks.
The mice were then randomly divided in 2 groups that received a single dose of: A) isotype control mouse IgG1 (10 mg/kg) or B) NMC-103 (10 mg/kg).

[3] = target: NMC-P3 peptide (SEQ ID NO:3), amino acids 475-491 of HDM2 (Homo sapiens, UniProt Q00987); test: Peptide-ELISA, NMC-P3 peptide; format: binding; conditions: 5 μg/ml peptide dried on plate; OD 450 nm
Experimental: Peptide-ELISA Methodology: 5 μg/ml of NMC-P1, NMC-P2 or NMC-P3 peptide antigen was dried onto a 96-well ELISA plate overnight. Plates were then blocked with 5% BSA in 1× phosphate-buffered saline (PBS) (100 ? /well) for 2 hours at room temperature. Microplate wells were then washed 5 times with 300 ? of ice cold 1× PBS. Appropriate dilutions of monoclonal antibodies NMC-103, NMC-204 or NMC-303 in 1% bovine serum albumin (BSA) in PBS solution were then incubated with their corresponding peptides (NMC-P1, NMC-P2 or NMC-P3, respectively) at room temperature. After 2 hours, wells were washed 5 times with 300 ? ? ice-cold PBS/well and 100 ? secondary antibody (HRP-labeled Goat anti-Mouse F(ab′)2 H&L cross-adsorbed secondary antibody (HRP-GaM F(ab′)2), ThermoFisher, Cat. No. A24524) diluted 1:2500 to 1:5000 in PBS-1% BSA solution were added and the incubation continued at room temperature. After 1 hour, the wells were washed again 5 times with 200 ? of ice-cold PBS and 50 μiL of the TMB Substrate Solution (1-StepTM Ultra TMB-ELISA, ThermoFisher, Cat. No. 34028) were added to each well and color was allowed to develop for 30 minutes at room temperature. The reaction was stopped by addition of 50 μ ? ? of stop solution (ThermoFisher, Cat. No. SSO4) to each well and absorbance of each well was read immediately for optical density (OD) at 450 nm.

B1: NMC-103: mouse monoclonal antibody, IgG1 isotype, binds NMC-P1 (SEQ ID NO:1); VH SEQ ID NO:36, VL SEQ ID NO:37 (antibody, V domains shown)
VH: EVQLQESGGGLVQPGGSLRLSCTTSGFTFTHYYMSWVRQPPGKALEWLGFIRNKAKGYTAEYSASVKGRFTISRDNSQSILYLQMNTLRPEDSATYYCARDIGDNWGQGTLVTVSS
VL: DIVMTQAAFSNPVTLGTSASISCRSSKNLLHSNGITYLYWYLQRPGQSPQLLISRVSNLASGVPNRFSGSESGTDFTLRISRVEAEDVGVYFCAQLLELPYTFGGGTKLEIK
modifications: mAb NMC-103 Heavy Chain Variable Region; mAb NMC-103 Light Chain Variable Region
binding of mAb to NMC-P1 peptide on the plate after pre-incubation with NMC-P1 peptide [1]: abolished the binding | binding of mAb to NMC-P1 peptide on the plate after pre-incubation with NMC-P2 or NMC-P3 [1]: did not affect the binding | tumor size 6 days after a single i.p. injection ([2]; 10 mg/kg single dose after 19 days of Gemcitabine 25 mg/kg + nab-Paclitaxel 5 mg/kg, from 438 mm^3, FIG. 30): 233 mm^3 | Kaplan Meier survival analysis versus chemotherapy alone or control antibody ([2]; conditions of FIG. 27, FIG. 28): significant survival benefit | average tumor size / measurement ([2]; day 34, NMC-103 10 mg/kg, Gemcitabine 25 mg/kg, nab-Paclitaxel 5 mg/kg i.p. 2 times a week for 4 weeks, surviving mice, NMC-103 group values ascribed to scars and inflammation, FIG. 27): 230 mm^3 | average tumor volume ([2]; day 35, i.p. 2 times a week for 3 weeks (6th dose day 19), then 2 weeks off, antibody 2 mg/kg, Gemcitabine 25 mg/kg, nab-Paclitaxel 5 mg/kg, start approx 70 mm^3, n=6, FIG. 19): 1523 mm^3 | tumor growth during 4 further weeks without drug treatment (to day 62) ([2]; groups C (n=8) and D (n=7) of FIG. 27): no sign of tumor growth beyond the initial scar size | tumor 10 days after re-challenge with Panc-2 cells ([2]; re-challenge at day 62, 2×10^6 cells/mouse s.c. left dorsal flank, previously treated mice of FIG. 27, FIG. 29): no tumor was observed

B2: NMC-204: mouse monoclonal antibody, IgG3 isotype, binds NMC-P2 (SEQ ID NO:2); VH SEQ ID NO:38, VL SEQ ID NO:39 (antibody, V domains shown)
VH: EVQLQESGSVLVRPGASVKLSCKASGDTLSGSWMHWAMQRPGQGLEWIGEIHLNRGTTNYNEKFKGKATVTVDTSSSTAYVDLSSLTSEDSAVYYCARSPGFAYWGQGTLVTVSA
VL: GIVMTQAAPSVPVTPGESVSISCRSSKSLLHSNGNSYLYWFLQRPGQSPQLLIYRMSNLASGVPDRFSGSGSGTAFTLRITRVEAEDVGVYYCMQHLEYPFTFGSGTKLEIK
modifications: mAb NMC-204 Heavy Chain Variable Region; mAb NMC-204 Light Chain Variable Region
binding to NMC-P3 peptide (peptide-ELISA) [3]: did not bind
